± gives the standard deviation.
Assay: collision cross section of modified peptide (TIMS, N2, iRT-aligned); higher = larger / more extended gas-phase ion
Method: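 1/K0 was aligned run-wise to spiked iRT peptides and converted to CCS in N2 (Mason-Schamp). Values are the mean of 1-3 technical replicates for the most abundant feature at each charge state.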

[1] = charge state: 2, modification: Acetyl (K)
[2] = charge state: 2, modification: Glutarylation
[3] = charge state: 3, modification: Glutarylation
[4] = charge state: 2, modification: Citrullination (R)
[5] = charge state: 3, modification: Citrullination (R)
[6] = charge state: 3, modification: Trimethyl (K)
[7] = charge state: 2, modification: Methyl (K)
[8] = charge state: 3, modification: Methyl (K)
[9] = charge state: 2, modification: Methyl (R)
[10] = charge state: 3, modification: Methyl (R)
[11] = charge state: 2, modification: Nitro (Y)
[12] = charge state: 2, modification: Biotin
[13] = charge state: 3, modification: Succinyl
[14] = charge state: 2, modification: GlyGly (K)
[15] = charge state: 3, modification: GlyGly (K)
[16] = charge state: 2, modification: Crotonyl
[17] = charge state: 3, modification: Crotonyl
[18] = charge state: 2, modification: Propionyl
[19] = charge state: 3, modification: Acetyl (K)
[20] = charge state: 2, modification: Formyl
[21] = charge state: 2, modification: Butyryl
[22] = charge state: 3, modification: Butyryl
[23] = charge state: 2, modification: hydroxyisobutyryl
[24] = charge state: 3, modification: hydroxyisobutyryl
[25] = charge state: 2, modification: Malonyl
[26] = charge state: 3, modification: Nitro (Y)
[27] = charge state: 2, modification: Trimethyl (K)
[28] = charge state: 2, modification: Succinyl
[29] = charge state: 3, modification: Malonyl

IGNSYFKEEK [_IGNSYFK(Acetyl (K))EEK_]
collision cross section [1]: 372.71 ± 0.4 Å²

ATVASSTQKFQDLGVK [_ATVASSTQK(Gluratylation)FQDLGVK_]
collision cross section [2]: 449.16 ± 1.1 Å²
collision cross section [3]: 497.84 ± 1.7 Å²

STNVTVAAARGIK [_STNVTVAAAR(Citrullination (R))GIK_]
collision cross section [4]: 395.23 ± 1.3 Å²
collision cross section [5]: 471.03 Å²

GADFLVTEVENGGSLGSKK [_GADFLVTEVENGGSLGSK(Trimethyl (K))K_]
collision cross section [6]: 548.47 ± 1.1 Å²

TPNLYIYSKK [_TPNLYIYSK(Methyl (K))K_]
collision cross section [7]: 377.12 ± 0.28 Å²
collision cross section [8]: 428.93 ± 5.2 Å²

SFDEVEGVFGRGGGR [_SFDEVEGVFGR(Methyl (R))GGGR_]
collision cross section [9]: 429.58 ± 1.6 Å²
collision cross section [10]: 513.29 ± 1.2 Å²

LDEKENLSAK [_LDEK(Acetyl (K))ENLSAK_]
collision cross section [1]: 366.13 ± 0.94 Å²

TEVNSGFFYK [_TEVNSGFFY(Nitro (Y))K_]
collision cross section [11]: 367.43 ± 0.8 Å²

GEVGAGAGPGAQAGPSAKR [_GEVGAGAGPGAQAGPSAK(Biotin)R_]
collision cross section [12]: 440.5 ± 1.2 Å²
collision cross section (charge state: 3, modification: Biotin): 470.58 ± 2.6 Å²

SPPLPEHQKIPCNSAEPK [_SPPLPEHQK(Succinyl)IPCNSAEPK_]
collision cross section [13]: 539.73 ± 2.2 Å²

PANEKATDDYHYEK [_PANEK(GlyGly (K))ATDDYHYEK_]
collision cross section [14]: 439.63 ± 1.2 Å²
collision cross section [15]: 506.82 ± 0.35 Å²

PARGLYSR [_PAR(Methyl (R))GLYSR_]
collision cross section [9]: 338.81 ± 0.66 Å²
collision cross section [10]: 407.19 Å²

IVFSGNLFQHQEDSKK [_IVFSGNLFQHQEDSK(Crotonyl)K_]
collision cross section [16]: 503.03 ± 1.1 Å²
collision cross section [17]: 539.53 ± 1.2 Å²

IISSIEQKEENK [_IISSIEQK(Propionyl)EENK_]
collision cross section [18]: 403.07 ± 0.65 Å²

IVFSGNLFQHQEDSKK [_IVFSGNLFQHQEDSK(Acetyl (K))K_]
collision cross section [1]: 495.37 ± 4.2 Å²
collision cross section [19]: 536.07 ± 1.1 Å²

SPSDSGYSYETIGKTTK [_SPSDSGYSYETIGK(Crotonyl)TTK_]
collision cross section [16]: 455.39 ± 0.82 Å²
collision cross section [17]: 528.2 ± 1.2 Å²

VGLQVVAVKAPGFGDNR [_VGLQVVAVK(Formyl)APGFGDNR_]
collision cross section [20]: 440.17 ± 1.2 Å²
collision cross section (charge state: 3, modification: Formyl): 529.54 ± 3 Å²

LGVATVAKGVCGACK [_LGVATVAK(Acetyl (K))GVCGACK_]
collision cross section [1]: 413.53 ± 0.49 Å²

IISSIEQKEENK [_IISSIEQK(Butyryl)EENK_]
collision cross section [21]: 408.13 ± 0.85 Å²
collision cross section [22]: 479 Å²

GDAGEPGR [_GDAGEP(Hydroxyproline)GR_]
collision cross section (charge state: 2, modification: Hydroxyproline): 292.85 ± 1.1 Å²

DASTLQSQKAEGTGDAK [_DASTLQSQK(Butyryl)AEGTGDAK_]
collision cross section [21]: 440.14 ± 0.24 Å²
collision cross section [22]: 511.91 ± 3.5 Å²

VNVEAPDVNLEGLGGKLK [_VNVEAPDVNLEGLGGK(hydroxyisobutyryl)LK_]
collision cross section [23]: 461.55 ± 2 Å²
collision cross section [24]: 550.67 ± 0.8 Å²

ITASLCDLKSR [_ITASLCDLK(Formyl)SR_]
collision cross section [20]: 378.38 Å²

ANEKTESSSAQQVAVSR [_ANEK(GlyGly (K))TESSSAQQVAVSR_]
collision cross section [14]: 467.32 ± 0.84 Å²
collision cross section [15]: 498.93 ± 1.1 Å²

DHLSDKESK [_DHLSDK(Propionyl)ESK_]
collision cross section [18]: 355.5 ± 0.95 Å²

PSVSTKLISK [_PSVSTK(Formyl)LISK_]
collision cross section [20]: 346.92 ± 1.1 Å²

ASNAAVKLAESK [_ASNAAVK(Butyryl)LAESK_]
collision cross section [21]: 375.52 ± 1.2 Å²

VYIASSSGSTAIKK [_VYIASSSGSTAIK(Malonyl)K_]
collision cross section [25]: 409.24 ± 0.039 Å²

SPASDTYIVFGEAK [_SPASDTY(Nitro (Y))IVFGEAK_]
collision cross section [11]: 402.5 ± 0.55 Å²
collision cross section [26]: 486.92 Å²

ALASIDSKLNQAK [_ALASIDSK(Formyl)LNQAK_]
collision cross section [20]: 395.38 ± 0.55 Å²

VDIDVPDVNIEGPDAKLK [_VDIDVPDVNIEGPDAK(Trimethyl (K))LK_]
collision cross section [27]: 470.5 Å²
collision cross section [6]: 538.87 ± 1.8 Å²

PGGEGPQCEKTTDVK [_PGGEGPQCEK(hydroxyisobutyryl)TTDVK_]
collision cross section [23]: 425.58 ± 0.3 Å²
collision cross section [24]: 464.88 Å²

DSSPTTNSKLSALQR [_DSSPTTNSK(GlyGly (K))LSALQR_]
collision cross section [14]: 434.5 ± 1.6 Å²
collision cross section [15]: 501.52 ± 0.79 Å²

VGEFSGANKEK [_VGEFSGANK(Malonyl)EK_]
collision cross section [25]: 354.12 ± 1.7 Å²

AYGELPEHAK [_AY(Nitro (Y))GELPEHAK_]
collision cross section [11]: 361.5 ± 1.2 Å²
collision cross section [26]: 445.86 ± 1.2 Å²

ASNAAVKLAESK [_ASNAAVK(Succinyl)LAESK_]
collision cross section [28]: 372.84 ± 0.87 Å²

TEVLSPNSKVESK [_TEVLSPNSK(Methyl (K))VESK_]
collision cross section [7]: 412.51 ± 2.6 Å²
collision cross section [8]: 437.62 ± 4.3 Å²

ITLSKHQNVQLPR [_ITLSK(Gluratylation)HQNVQLPR_]
collision cross section [2]: 422.98 ± 0.48 Å²
collision cross section [3]: 526.02 ± 27 Å²

LEEVTGKLQVAR [_LEEVTGK(Propionyl)LQVAR_]
collision cross section [18]: 394.4 ± 1.3 Å²

TEVLSPNSKVESK [_TEVLSPNSK(hydroxyisobutyryl)VESK_]
collision cross section [23]: 419.54 ± 0.31 Å²
collision cross section [24]: 455.3 ± 1.9 Å²

IQQELQTAKK [_IQQELQTAK(Malonyl)K_]
collision cross section [25]: 373.35 ± 6 Å²

GSLEKGSPEDK [_GSLEK(Trimethyl (K))GSPEDK_]
collision cross section [27]: 363.82 ± 0.64 Å²
collision cross section [6]: 436.7 ± 2.4 Å²

TEVLSPNSKVESK [_TEVLSPNSK(Malonyl)VESK_]
collision cross section [25]: 400.58 ± 1.9 Å²
collision cross section [29]: 444.22 ± 3.4 Å²

LQLEIDQKK [_LQLEIDQK(hydroxyisobutyryl)K_]
collision cross section [23]: 371.26 ± 0.27 Å²

VDIDVPDVNIEGPDAKLK [_VDIDVPDVNIEGPDAK(hydroxyisobutyryl)LK_]
collision cross section [23]: 489.94 Å²

SGATAGAAGGRGK [_SGATAGAAGGR(Methyl (R))GK_]
collision cross section [9]: 366.66 ± 1.5 Å²
collision cross section [10]: 448.31 ± 3.9 Å²

ANLEKAQAELVGTADEATR [_ANLEK(Trimethyl (K))AQAELVGTADEATR_]
collision cross section [6]: 528.43 ± 0.88 Å²

TTGFYSGFSEVAEKR [_TTGFYSGFSEVAEK(hydroxyisobutyryl)R_]
collision cross section [23]: 444.06 ± 0.8 Å²
collision cross section [24]: 515.51 ± 0.49 Å²

LEEVTGKLQVAR [_LEEVTGK(Trimethyl (K))LQVAR_]
collision cross section [27]: 402.01 ± 1.1 Å²
collision cross section [6]: 471.9 ± 1.5 Å²

KYEEIDNAPEER [_K(Acetyl (K))YEEIDNAPEER_]
collision cross section [1]: 408.98 ± 1.6 Å²
collision cross section [19]: 493.17 ± 8.3 Å²

PANEKATDDYHYEK [_PANEK(Methyl (K))ATDDYHYEK_]
collision cross section [8]: 492.44 ± 0.72 Å²

LEEVTGKLQVAR [_LEEVTGK(Methyl (K))LQVAR_]
collision cross section [7]: 393.19 ± 1.7 Å²
collision cross section [8]: 474.94 ± 3.5 Å²

LGSPSGKTGTCR [_LGSPSGK(Succinyl)TGTCR_]
collision cross section [28]: 368.12 ± 0.52 Å²

SITHSTVGSKGEK [_SITHSTVGSK(Propionyl)GEK_]
collision cross section [18]: 395.17 ± 0.94 Å²
collision cross section (charge state: 3, modification: Propionyl): 443.25 ± 0.59 Å²

GGPGSTLSFVGKR [_GGPGSTLSFVGK(Malonyl)R_]
collision cross section [25]: 380.38 ± 0.0061 Å²

TGPPGSTGSRGPPGPPGR [_TGPPGSTGSRGPPGPP(Hydroxyproline)GR_]
collision cross section (charge state: 3, modification: Hydroxyproline): 472.54 ± 0.36 Å²

VQGGALEDSQLVAGVAFKK [_VQGGALEDSQLVAGVAFK(hydroxyisobutyryl)K_]
collision cross section [23]: 481.48 Å²
collision cross section [24]: 565.17 ± 3.4 Å²

DLGKFQVATDALK [_DLGK(hydroxyisobutyryl)FQVATDALK_]
collision cross section [23]: 409.13 ± 0.55 Å²

GGPGGELPRGPQAGLGPR [_GGPGGELPR(Methyl (R))GPQAGLGPR_]
collision cross section [10]: 497.33 ± 2 Å²

SPSDSGYSYETIGKTTK [_SPSDSGYSYETIGK(Malonyl)TTK_]
collision cross section [25]: 450.66 ± 0.58 Å²
collision cross section [29]: 526.41 Å²

TTEETSKPK [_TTEETSK(Biotin)PK_]
collision cross section [12]: 372.34 Å²

KYEEIDNAPEER [_K(Succinyl)YEEIDNAPEER_]
collision cross section [28]: 412.18 ± 0.54 Å²
collision cross section [13]: 490.15 Å²

VQGGALEDSQLVAGVAFKK [_VQGGALEDSQLVAGVAFK(Gluratylation)K_]
collision cross section [2]: 484.97 ± 2 Å²
collision cross section [3]: 564.26 Å²

LTEKELAEAASK [_LTEK(Trimethyl (K))ELAEAASK_]
collision cross section [27]: 406.14 ± 0.61 Å²
collision cross section [6]: 451.11 ± 2.4 Å²

IQTKAGEATVK [_IQTK(Butyryl)AGEATVK_]
collision cross section [21]: 371.66 ± 1.8 Å²

GIGRGTVQALHATGAR [_GIGR(Citrullination (R))GTVQALHATGAR_]
collision cross section [4]: 453.22 ± 0.95 Å²
collision cross section [5]: 491.89 ± 1.9 Å²
